Data on one protein can be found in article PMC12207459, “A self-assembling surface layer flattens the cytokinetic furrow to aid cell division in an archaeon” (Proceedings of the National Academy of Sciences of the …, 2025).

This series concerns the molecule itself. Nature of the series: cryo-EM imaging of cells; unlabeled purified S-layer proteins added to live Vps4 E209Q ΔslaA cells, 75 °C, 1 h; lattice seen on the cell surface by cryo-EM.

B1: purified SlaA from wild-type S. acidocaldarius, unlabeled (natural protein, Sulfolobus acidocaldarius, UniProt Q4J6E5 25-1424, looked up)
chain: ITTTALTPPVSAGGIQAYLLTGSGAPASGLVLFVVNVSNIQVSSSNVTNVISTVVSNIQINAKTENAQTGATTGSVTVRFPTSGYNAYYDSVDKVVFVVVSFLYPYTTTSVNIPLSYLSKYLPGLLTAQPYDETGAQVTSVSSTPFGSLIDTSTGQQILGTNPVLTSYNSYTTQANTNMQEGVVSGTLTSFTLGGQSFSGSTVPVILYAPFIFSNSPYQAGLYNPMQVNGNLGSLSSEAYYHPVIWGRALINTTLIDTYASGSVPFTFQLNYSVPGPLTINMAQLAWIASINNLPTSFTYLSYKFSNGYESFLGIISNSTQLTAGALTINPSGNFTINGKKFYVYLLVVGSTNSTTPVEYVTKLVVEYPSSTNFLPQGVTVTTSSNKYTLPVYEIGGPAGTTITLTGNWYSTPYTVQITVGSTPTLTNYVSQILLKAVAYEGINVSTTQSPYYSTAILSTPPSEISITGSSTITAQGKLTATSASATVNLLTNATLTYENIPLTQYSFNGIIVTPGYAAINGTTAMAYVIGALYNKTSDYVLSFAGSQEPMQVMNNNLTEVTTLAPFGLTLLAPSVPATETGTSPLQLEFFTVPSTSYIALVDFGLWGNLTSVTVSAYDTVNNKLSVNLGYFYGIVIPPSISTAPYNYQNFICPNNYVTVTIYDPDAVLDPYPSGSFTTSSLPLKYGNMNITGAVIFPGSSVYNPSGVFGYSNFNKGAAVTTFTYTAQSGPFSPVALTGNTNYLSQYADNNPTDNYYFIQTVNGMPVLMGGLSIVASPVSASLPSSTSSPGFMYLLPSAAQVPSPLPGMATPNYNLNIYITYKIDGATVGNNMINGLYVASQNTLIYVVPNGSFVGSNIKLTYTTTDYAVLHYFYSTGQYKVFKTVSVPNVTANLYFPSSTTPLYQLSVPLYLSEPYYGSPLPTYIGLGTNGTSLWNSPNYVLFGVSAVQQYLGFIKSISVTLSNGTTVVIPLTTSNMQTLFPQLVGQELQACNGTFQFGISITGLEKLLNLNVQQLNNSILSVTYHDYVTGETLTATTKLVALSTLSLVAKGAGVVEFLLTAYPYTGNITFAPPWFIAENVVKQPFMTYSDLQFAKTNPSAILSLSTVNITVVGLGGKASVYYNSTSGQTVITNIYGQTVATLSGNVLPTLTELAAGNGTFTGSLQFTIVPNNTVVQIPSSLTKTSFAVYTNGSLAIVLNGKAYSLGPAGLFLLPFVTYTGSAIGANATAIITVSDGVGTSTTQVPITAENFTPIRLAPFQVPAQVPLPNAPKLKYEYNGSIVITPQQQVLKIYVTSILPYPQEFQIQAFVYEASQFNVHTGSPTAAPVYFSYSAVRAYPALGIGTSVPNLLVYVQLQGISNLPAGKYVIVLSAVPFAGGPVLSEYPAQLIFTNVTLTQ
modifications: highly glycosylated
notes: S-layer protein SlaA of Sulfolobus acidocaldarius, locus saci2355, extracted from the S-layer of wild-type cells; Same preparation as m1 without the dye; it may also contain SlaB; also called unlabeled exogenous S-layer proteins; soluble S-layer proteins
For the protein B1, the binding result is reported as “binds”.
